Results on four molecules are retold here after US20200165308A1 (UNIVERSITY OF MANITOBA, published 2020).

For experiment [1], the target named is T1, extracellular domains of UNC5h2 (CAD32251, aa: 25-374) (Mus musculus, UniProt Q8K1S3 25-374).
T1 construct: also called UNC5h2 full-length ectodomain; not shown: C-terminal double Strep-tag II
Nature of the experiment: solid-phase binding.

Experiment [2] addresses T2, Netrin-1 (NET1) from Mus musculus lacking the C-terminal domain (NP_032770, aa: 24-457) (Mus musculus, UniProt O09118 24-457). Nature of the experiment: solid-phase binding, NEO1 immobilized.
Experiment [3] deals with T2, Netrin-1 (NET1) from Mus musculus …. Nature of the experiment: solid-phase binding.

B1: NET1 with the eight loop a/b residues 348RRCRFNME355 replaced by the equivalent residues from NET4 (339DTCHFDVN346) (ligand)
chain: not shown
notes: C350 and F352 are the same in both; also called NET1/NET4 loop a/b swap
With B1, the “fold drop in affinity against wild type NET1” value in experiment [1] stood at 50 fold.

B2: full-length ectodomain of NEO1 (AAH54540, aa: 41-1107) (receptor)
chain: GAAATKSGSPPQSAGASVRTFTPFYFLVEPVDTLSVRGSSVILNCSAYSEPSPNIEWKKDGTFLNLESDDRRQLLPDGSLFISNVVHSKHNKPDEGFYQCVATVDNLGTIVSRTAKLTVAGLPRFTSQPEPSSVYVGNSAILNCEVNADLVPFVRWEQNRQPLLLDDRIVKLPSGTLVISNATEGDGGLYRCIVESGGPPKFSDEAELKVLQDPEEIVDLVFLMRPSSMMKVTGQSAVLPCVVSGLPAPVVRWMKNEEVLDTESSGRLVLLAGGCLEISDVTEDDAGTYFCIADNGNKTVEAQAELTVQVPPGFLKQPANIYAHESMDIVFECEVTGKPTPTVKWVKNGDVVIPSDYFKIVKEHNLQVLGLVKSDEGFYQCIAENDVGNAQAGAQLIILEHDVAIPTLPPTSLTSATTDHLAPATTGPLPSAPRDVVASLVSTRFIKLTWRTPASDPHGDNLTYSVFYTKEGVARERVENTSQPGEMQVTIQNLMPATVYIFKVMAQNKHGSGESSAPLRVETQPEVQLPGPAPNIRAYATSPTSITVTWETPLSGNGEIQNYKLYYMEKGTDKEQDIDVSSHSYTINGLKKYTEYSFRVVAYNKHGPGVSTQDVAVRTLSDVPSAAPQNLSLEVRNSKSIVIHWQPPSSTTQNGQITGYKIRYRKASRKSDVTETLVTGTQLSQLIEGLDRGTEYNFRVAALTVNGTGPATDWLSAETFESDLDETRVPEVPSSLHVRPLVTSIVVSWTPPENQNIVVRGYAIGYGIGSPHAQTIKVDYKQRYYTIENLDPSSHYVITLKAFNNVGEGIPLYESAVTRPHTVPDPTPMMPPVGVQASILSHDTIRITWADNSLPKHQKITDSRYYTVRWKTNIPANTKYKNANATTLSYLVTGLKPNTLYEFSVMVTKGRRSSTWSMTAHGATFELVPTSPPKDVTVVSKEGKPRTIIVNWQPPSEANGKITGYIIYYSTDVNAEIHDWVIEPVVGNRLTHQIQELTLDTPYYFKIQARNSKGMGPMSEAVQFRTPKALGSAGKGSRLPDLGSDYKPPMSGSNSPHGSPTSPLDSN
notes: also called neogenin; NEO1 full-length ectodomain; not shown: C-terminal double Strep-tag II
On to B2, for which the binding result in experiment [2] is on record as “binds”.

B3: UNC5h2 IgG1 (CAD32251, aa: 52-153) (receptor)
chain: not shown
notes: also called Ig1; Ig1 domain of UNC5h2; not shown: C-terminal double Strep-tag II
In the case of B3, the binding result in experiment [3] is listed as “binds”.

B4: UNC5h2 IgG2 (CAD32251, aa: 154-245) (receptor)
chain: not shown
notes: also called Ig2; Ig2 domain of UNC5h2; not shown: C-terminal double Strep-tag II
Take B4: the binding result in experiment [3] was “no binding”.
